Columns and labels:
protein S (wild type) = molecular target: T1, protein S (wild type) (UniProt P07225)
T1 sequence (chain, gamma-carboxyglutamate at 36 (printed as Gla36)): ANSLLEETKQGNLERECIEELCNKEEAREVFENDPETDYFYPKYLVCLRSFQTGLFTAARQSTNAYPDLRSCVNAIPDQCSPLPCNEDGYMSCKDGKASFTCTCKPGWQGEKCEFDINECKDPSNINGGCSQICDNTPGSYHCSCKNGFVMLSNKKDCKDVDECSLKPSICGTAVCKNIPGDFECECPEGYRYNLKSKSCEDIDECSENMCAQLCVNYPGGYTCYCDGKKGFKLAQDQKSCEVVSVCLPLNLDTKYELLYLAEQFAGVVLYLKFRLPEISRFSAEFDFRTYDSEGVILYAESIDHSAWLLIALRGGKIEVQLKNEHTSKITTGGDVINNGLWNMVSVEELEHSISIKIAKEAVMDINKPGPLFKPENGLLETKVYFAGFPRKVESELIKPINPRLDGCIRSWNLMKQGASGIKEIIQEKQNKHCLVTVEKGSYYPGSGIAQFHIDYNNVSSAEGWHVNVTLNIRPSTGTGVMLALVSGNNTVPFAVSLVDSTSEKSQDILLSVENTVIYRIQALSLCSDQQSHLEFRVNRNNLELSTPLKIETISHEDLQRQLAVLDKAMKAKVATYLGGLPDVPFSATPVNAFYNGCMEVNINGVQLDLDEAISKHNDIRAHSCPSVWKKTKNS

[1] = molecular target: T2, activated factor V (FVa), wild type (UniProt P12259 29-737; P12259 1574-2224); test: flow cytometry on phospholipid-coated magnetic beads; as a2, with 200 nmol/L β-chain-containing C4BP pre-incubated with 100 nmol/L protein S and 25 nmol/L FVa for 10 min before 50 nmol/L APC-Fluor; details: both partners purified
T2 construct: FVa heavy chain (A1-A2), cut from full-length recombinant FV by thrombin; FVa light chain (A3-C1-C2), cut from full-length recombinant FV by thrombin with release of the B domain; FV cDNA in vector pED from Dr Rodney Camire; also called WT FVa; factor Va
T2 sequence (looked up) 1: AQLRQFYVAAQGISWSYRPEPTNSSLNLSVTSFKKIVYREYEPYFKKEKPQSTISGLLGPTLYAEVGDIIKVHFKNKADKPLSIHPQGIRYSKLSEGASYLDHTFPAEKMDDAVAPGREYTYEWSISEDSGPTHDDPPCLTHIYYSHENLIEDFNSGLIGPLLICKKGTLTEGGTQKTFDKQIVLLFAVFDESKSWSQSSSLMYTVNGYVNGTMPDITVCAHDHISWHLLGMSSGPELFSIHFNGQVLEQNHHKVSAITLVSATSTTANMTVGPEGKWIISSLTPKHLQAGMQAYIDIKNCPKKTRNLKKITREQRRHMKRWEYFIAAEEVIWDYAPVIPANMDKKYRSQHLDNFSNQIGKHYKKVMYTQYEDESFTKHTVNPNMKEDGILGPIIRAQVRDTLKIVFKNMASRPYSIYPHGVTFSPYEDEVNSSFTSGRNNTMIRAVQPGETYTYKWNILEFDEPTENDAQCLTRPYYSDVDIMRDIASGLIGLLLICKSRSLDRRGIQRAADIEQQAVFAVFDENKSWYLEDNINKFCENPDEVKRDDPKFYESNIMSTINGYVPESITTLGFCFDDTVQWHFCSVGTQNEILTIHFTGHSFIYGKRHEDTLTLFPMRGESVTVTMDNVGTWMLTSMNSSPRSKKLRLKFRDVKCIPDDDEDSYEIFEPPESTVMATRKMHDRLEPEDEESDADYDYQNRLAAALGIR
T2 sequence (looked up) 2: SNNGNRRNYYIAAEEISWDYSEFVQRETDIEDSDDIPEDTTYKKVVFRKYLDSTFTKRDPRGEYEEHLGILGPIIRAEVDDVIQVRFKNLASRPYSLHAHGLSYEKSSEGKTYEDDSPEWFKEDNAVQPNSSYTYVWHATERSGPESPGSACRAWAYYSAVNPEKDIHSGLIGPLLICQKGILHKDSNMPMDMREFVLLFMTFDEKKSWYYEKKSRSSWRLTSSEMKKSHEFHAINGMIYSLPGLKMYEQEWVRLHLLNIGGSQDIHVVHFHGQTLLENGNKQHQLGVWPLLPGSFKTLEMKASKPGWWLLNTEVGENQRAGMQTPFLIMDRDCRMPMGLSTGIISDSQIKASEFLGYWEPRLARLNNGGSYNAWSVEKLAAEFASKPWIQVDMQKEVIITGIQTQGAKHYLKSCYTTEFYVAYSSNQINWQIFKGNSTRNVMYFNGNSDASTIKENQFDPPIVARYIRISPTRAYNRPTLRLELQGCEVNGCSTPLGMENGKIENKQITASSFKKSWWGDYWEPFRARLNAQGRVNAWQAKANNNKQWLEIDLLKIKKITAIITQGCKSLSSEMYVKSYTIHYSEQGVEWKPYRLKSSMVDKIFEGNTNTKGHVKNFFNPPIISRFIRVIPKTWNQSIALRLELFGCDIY

[2] = molecular target: T3, β-chain-containing C4b-binding protein (C4BP), protein S-free (human, UniProt P04003 49-597; P20851 18-252); test: as above; details: both partners purified
T3 construct: source: purified from pooled fresh frozen citrated human plasma
T3 sequence (looked up) 1: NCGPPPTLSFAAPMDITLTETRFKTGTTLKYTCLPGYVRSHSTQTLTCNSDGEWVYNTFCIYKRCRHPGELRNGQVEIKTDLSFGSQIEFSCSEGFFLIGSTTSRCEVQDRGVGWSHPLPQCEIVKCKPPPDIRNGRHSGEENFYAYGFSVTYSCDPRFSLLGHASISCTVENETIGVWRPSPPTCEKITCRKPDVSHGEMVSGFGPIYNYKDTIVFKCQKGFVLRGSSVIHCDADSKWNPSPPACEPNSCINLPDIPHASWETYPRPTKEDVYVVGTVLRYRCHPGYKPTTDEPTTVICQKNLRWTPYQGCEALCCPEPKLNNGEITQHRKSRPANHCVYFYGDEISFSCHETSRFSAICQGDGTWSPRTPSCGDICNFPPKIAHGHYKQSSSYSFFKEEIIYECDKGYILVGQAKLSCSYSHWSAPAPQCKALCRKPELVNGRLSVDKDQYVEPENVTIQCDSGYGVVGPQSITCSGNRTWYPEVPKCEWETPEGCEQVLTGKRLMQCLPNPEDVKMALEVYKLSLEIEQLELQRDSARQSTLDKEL
T3 sequence (looked up) 2: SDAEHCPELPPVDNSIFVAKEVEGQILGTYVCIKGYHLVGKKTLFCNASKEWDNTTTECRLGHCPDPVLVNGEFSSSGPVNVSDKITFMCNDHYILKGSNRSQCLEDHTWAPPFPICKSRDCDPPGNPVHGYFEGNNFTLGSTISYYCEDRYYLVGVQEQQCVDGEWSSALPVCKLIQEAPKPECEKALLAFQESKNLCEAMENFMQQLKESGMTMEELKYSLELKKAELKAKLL

Q: Which results are given for “activated factor V Nara (FVa^Nara, W1920R) (from UniProt P12259 29-737; P12259 1574-2224) (natural protein)”?
A: FVa inactivation assay (remaining FVa activity by prothrombinase assay): protein S needed for inactivation comparable to WT FVa at 3 nmol/L protein S; 0.25 nmol/L APC, 25 μmol/L phospholipids, 10 min (protein S (wild type)): > 50 nmol/L; FVa inactivation assay in the presence of protein S: APC (0-0.25 nmol/L) that reduces FVa activity by ~50%; 25 μmol/L phospholipids, 10 min (protein S (wild type)): > 50 pmol/L

B1: protein S (wild type) (natural protein, UniProt P07225 42-676, looked up)
chain: T1 sequence (chain, gamma-carboxyglutamate at 36 (printed as Gla36))
modifications: gamma-carboxyglutamate at 36 (printed as Gla36)
notes: protein S, wild type; also called WT protein S; PS; source: HEK293 cells, stably transfected, purified (barium citrate precipitation, anion exchange chromatography)
Q: Which results are given for B1?
A: binding result [1]: binds; binding result [2]: binds
